This note sets out measurements from PMC10579538 (The Journal of Biological Chemistry, 2023).

Assay [1] has as its target actin (UniProt P68135).
In assay [2] the target is myosin-7a subfragment-1 (motor domain and the first IQ motif) (human). Kind of assay: mass photometry.
Assay [3] deals with full-length human myosin-7a heavy chain (isoform 1, long N-terminal isoform) (human, UniProt Q13402-1 1-2215). Put plainly: single-molecule two-color TIRF co-migration on actin.
full-length human myosin-7a heavy chain (isoform 1, long N-terminal isoform), sequence (Q13402 whole entry, canonical isoform): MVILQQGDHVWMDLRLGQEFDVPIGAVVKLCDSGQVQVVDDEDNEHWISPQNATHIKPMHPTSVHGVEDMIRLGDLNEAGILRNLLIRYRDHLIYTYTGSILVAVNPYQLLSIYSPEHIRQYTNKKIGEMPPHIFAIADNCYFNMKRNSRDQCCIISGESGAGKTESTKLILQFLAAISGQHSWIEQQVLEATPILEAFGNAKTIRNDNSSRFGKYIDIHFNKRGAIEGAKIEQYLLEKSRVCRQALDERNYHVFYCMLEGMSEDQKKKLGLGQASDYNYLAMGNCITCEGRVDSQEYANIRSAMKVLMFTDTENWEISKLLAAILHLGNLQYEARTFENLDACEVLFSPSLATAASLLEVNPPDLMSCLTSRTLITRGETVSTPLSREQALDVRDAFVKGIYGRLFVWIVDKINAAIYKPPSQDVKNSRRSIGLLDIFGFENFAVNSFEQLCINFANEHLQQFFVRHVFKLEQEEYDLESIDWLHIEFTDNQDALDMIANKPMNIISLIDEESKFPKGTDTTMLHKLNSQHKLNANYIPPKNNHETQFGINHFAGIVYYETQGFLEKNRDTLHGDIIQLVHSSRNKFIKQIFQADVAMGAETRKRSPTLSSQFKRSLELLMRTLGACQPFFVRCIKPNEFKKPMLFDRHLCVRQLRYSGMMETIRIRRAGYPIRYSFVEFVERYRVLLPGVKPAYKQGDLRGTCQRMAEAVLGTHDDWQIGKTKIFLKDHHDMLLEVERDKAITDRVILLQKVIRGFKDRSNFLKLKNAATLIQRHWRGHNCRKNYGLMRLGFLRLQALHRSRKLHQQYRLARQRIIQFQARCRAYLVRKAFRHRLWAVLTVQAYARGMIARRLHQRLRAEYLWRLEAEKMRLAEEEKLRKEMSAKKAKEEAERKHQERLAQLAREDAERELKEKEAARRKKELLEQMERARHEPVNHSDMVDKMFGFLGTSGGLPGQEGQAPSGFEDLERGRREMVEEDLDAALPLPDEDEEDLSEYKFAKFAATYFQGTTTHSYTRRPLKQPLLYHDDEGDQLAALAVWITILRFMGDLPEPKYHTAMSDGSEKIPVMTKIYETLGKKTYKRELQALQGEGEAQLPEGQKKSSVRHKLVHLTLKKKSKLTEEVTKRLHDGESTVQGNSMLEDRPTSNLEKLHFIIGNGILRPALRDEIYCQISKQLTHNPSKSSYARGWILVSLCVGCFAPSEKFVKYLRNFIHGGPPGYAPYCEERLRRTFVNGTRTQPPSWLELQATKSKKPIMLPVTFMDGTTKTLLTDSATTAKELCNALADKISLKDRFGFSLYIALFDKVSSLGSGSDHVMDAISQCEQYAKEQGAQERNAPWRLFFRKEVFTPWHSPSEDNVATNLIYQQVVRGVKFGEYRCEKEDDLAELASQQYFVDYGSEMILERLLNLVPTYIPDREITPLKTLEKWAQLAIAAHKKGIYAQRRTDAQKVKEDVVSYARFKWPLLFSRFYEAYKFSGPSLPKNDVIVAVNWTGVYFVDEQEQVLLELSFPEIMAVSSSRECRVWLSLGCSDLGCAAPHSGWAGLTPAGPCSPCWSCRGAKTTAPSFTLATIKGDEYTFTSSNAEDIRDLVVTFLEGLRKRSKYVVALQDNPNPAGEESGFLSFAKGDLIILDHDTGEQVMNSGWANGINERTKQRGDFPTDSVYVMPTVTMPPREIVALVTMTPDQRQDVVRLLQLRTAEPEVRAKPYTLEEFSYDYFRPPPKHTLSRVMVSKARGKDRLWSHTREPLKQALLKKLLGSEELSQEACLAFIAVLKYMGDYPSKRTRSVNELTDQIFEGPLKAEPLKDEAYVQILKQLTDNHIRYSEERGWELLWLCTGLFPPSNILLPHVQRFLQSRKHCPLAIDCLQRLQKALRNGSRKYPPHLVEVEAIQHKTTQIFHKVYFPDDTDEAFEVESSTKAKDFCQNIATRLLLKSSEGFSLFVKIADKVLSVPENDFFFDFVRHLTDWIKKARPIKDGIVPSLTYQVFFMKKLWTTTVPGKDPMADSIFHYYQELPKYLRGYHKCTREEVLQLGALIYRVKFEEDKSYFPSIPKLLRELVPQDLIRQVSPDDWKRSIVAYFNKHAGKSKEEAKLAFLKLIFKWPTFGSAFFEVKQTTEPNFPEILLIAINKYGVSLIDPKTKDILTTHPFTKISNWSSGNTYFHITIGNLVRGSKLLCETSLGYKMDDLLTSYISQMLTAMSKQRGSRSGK

Regarding “myosin-7a subfragment-1 (motor domain and the first IQ motif) (domain or fragment)”, the K ATPase of the actin-activated steady-state ATPase (NADH-coupled assay) in assay [1] was determined as 11 µM.

By stoichiometry N is commonly meant the number of molecules, sites or subunits per partner or assembly. As for “regulatory light chain (from UniProt O14950 1-172) (natural protein)”, the stoichiometry N in assay [2] was determined as 1.

B1: mCherry-tagged MyRIP (myosin and Rab interacting protein) (natural protein, UniProt Q8NFW9-1 1-859, looked up)
chain: MGRKLDLSGLTDDETEHVLQVVQRDFNLRKKEEERLSELKQKLDEEGSKCSILSKHQQFVEHCCMRCCSPFTFLVNTKRQCGDCKFNVCKSCCSYQKHEKAWVCCVCQQARLLRAQSLEWFYNNVKSRFKRFGSAKVLKNLYRKHRLESGACFDILGGSLFESNLENEGSISGSDSTFYRQSEGHSVMDTLAVALRVAEEAIEEAISKAEAYGDSLDKQNEASYLRDHKEELTEELATTILQKIIRKQKSKSEQQVEEEPGWPHPQSCSTKVADEGTSASPGGYRAPAALWRSQSAFSITGEEALKTPPVEAPSRQPRDQGQHPRAESALPSWKSVDRLDETNLAPVLQSPDGNWVALKDGAPPPTRLLAKPKSGTFQALEVASSVASAYDEMGSDSEEDFDWSEALSKLCPRSRALPRNPQPQPTQAQSSDQGPIAASPSSALSPNPEAMCSDSETSSAGSSREVGHQARLSWLQRKAPRNPAAEKMRLHGELDVNFNPQLASRETSDSSEPEEAPHTTDRRARRWRRARLGSEEPSKEPSSPSAQLRDLDTHQVSDDLSETDISNEARDPQTLTDTTEEKRRNRLYELAMKMSEKETSSGEDQESEPKTESENQKESLSSEDNSQSVQEELKKKFSAVSLCNISTEVLKVINATEELIAGSTGPWESPQVPPDRQKGMFPRGTDQVRLDEQLTSLEENVYLAAGTVYGLETQLTELEDAARCIHSGTDETHLADLEDQVATAAAQVHHAELQISDIESRISALTIAGLNIAPCVRFTRRRDQKQRTQVQTIDTSRQQRRKLPAPPVKAEKIETSSVTTIKTFNHNFILQGSSTNRTKERKGTTKDLMEPALESAVMY
Consider B1, for which the binding result in assay [3] is given as “binds”.
